Measured values as given in article PMC12797002, “Hydrophobic residues in the α‐synuclein NAC domain drive seed‐competent fibril formation and are targeted by peptide inhibitors” (The Febs Journal, 2025).
Entries after “also recorded” stand apart in the source; their conditions may differ.

Assays:
[1] = ThT aggregation kinetics and AFM/TEM imaging of NAC peptides; assay type: physicochemical; details: for aggregation (ThT kinetics) / lag time of aggregation compared with NAC35: 100 μM peptide, n = 3; for aggregation (ThT kinetics): 15 μM ThT, 1× PBS pH 7.2, 37 °C, 1000 rpm, 48–72 h, ThT fluorescence; for aggregate morphology (AFM and TEM): after 48 h of aggregation; for Key observations: fibril formation and stability / Key observations: nucleation: summary table; for lag time of aggregation compared with NAC35: ThT readings 0–10 h, Boltzmann sigmoidal fit, PBS pH 7.2, 37 °C
Description: NAC peptides stored at −80 °C were thawed on ice and centrifuged at 12 100 g for 45 s. A reaction mixture (40 μL) was prepared on ice containing 100 μM NAC peptide, either alone or in combination with inhibitor peptides at a 1 : 2 molar ratio, along with 15 μM ThT (Sigma‐Aldrich, Burlington, MA, USA; Cat. # T3516‐5G) in 1× PBS (pH 7.2). This mixture was then dispensed into a clear‐bottom, black 384‐well plate (Revvity, Waltham, MA, USA), and the plate was sealed with a TopSealA‐PLUS (Revvity) to prevent evaporation.
The aggregation kinetics was monitored on an EnSpire Multimode Plate Reader (Revvity) at 37 °C with a constant agitation of 1000 rpm. To prevent condensation in the assay plate, the upper heater temperature in the plate reader was set to 2 °C higher than the lower heater temperature. ThT (Ex: 460–490 nm, Em: 500–550 nm) fluorescence readings were recorded every 5–10 min for 48–72 h. The aggregation lag time was determined by fitting a Boltzmann sigmoidal equation to the fluorescence data in OriginPro 2024 (OriginLab Corporation, Northampton, MA, USA).
NAC peptide aggregates, collected after 48 h of the aggregation assay, were dropped onto a freshly cleaved 10 mm AFM mica disc (Ted Pella, Inc., Redding, CA, USA) and air‐dried for 10 min at room temperature. The mica discs were washed five times with deionized water and then dried for 10–15 min at room temperature. AFM imaging was performed as described, using the […] AIR probe (tip radius: 2 nm, spring constant: 0.4 N/m).
Samples were dropped on glow‐discharged carbon‐coated copper grids and negatively stained with 2% uranyl acetate. Electron microscopy was performed on a Tecnai G2 F20 microscope (FEI Technologies, Hillsboro, OR, USA) with an Eagle 4K CCD camera (FEI Technologies) or a CM100 TWIN Transmission Electron Microscope (Philips, Amsterdam, Netherlands) equipped with a side‐mounted Veleta Camera (Olympus, Tokyo, Japan) and processed in the iTEM software suite (Olympus). After bringing the images to 2048 × 2048 pixels, the pixel size at the specimen level was 1.14 nm. Approximately 20 micrographs of each specimen were recorded and evaluated.

[2] = ANS assay of NAC peptide aggregation at different pH; assay type: physicochemical; details: ANS fluorescence, 100 μM peptide; for aggregation on altering pH: acidic, neutral (pH 7.2) and basic (pH 8.0) PBS, 37 °C; for lag time at acidic pH compared with neutral pH / lag time at basic pH compared with neutral pH: 40 μM ANS, 1× PBS, 1000 rpm, n = 3; for lag time at acidic pH compared with neutral pH: acidic (pH 4.5 in legend, pH 4.2 in method) vs pH 7.2, 37 °C; for lag time at basic pH compared with neutral pH: pH 8.0 vs pH 7.2, 37 °C
Description: A 40‐μL reaction mixture was prepared on ice containing 100 μM NAC peptides and 40 μM 8‐anilino‐1‐naphthalenesulfonic acid (ANS; Sigma‐Aldrich, Cat. # A1028‐5G) in 1× PBS at pH 4.2, 7.2, or 8.0. The aggregation kinetics were monitored on an EnSpire Multimode Plate Reader (Revvity) at 37 °C with a constant agitation of 1000 rpm. ANS fluorescence readings (Ex: 390 nm, Em: 475 nm) were recorded every 5–10 min for 48–72 h. The lag time of aggregation was determined by fitting a Boltzmann sigmoidal equation, as described in the previous section.

[3] = UV-Vis spectrophotometric analysis of soluble and insoluble fractions; assay type: physicochemical; details: 100 μM peptide, 48 h incubation without ThT, 65 000 g 1 h, 1× PBS pH 7.2, spectra 400–600 nm; means of 3 replicates
Description: To fractionate aggregated samples (recombinant αSyn or NAC peptides), 20% of the aggregation mixture was set aside as the ‘total fraction’. The remaining sample was centrifuged at room temperature at 65 000 g for 1 h. The supernatant was collected as the ‘soluble fraction’ and transferred to a fresh tube. The pellet was resuspended in 80 μL of 1× PBS (pH 7.2) and centrifuged at 65 000 g for 1 h. After removing the supernatant, the pellet was resuspended in 8 μL of 1× PBS (pH 7.2), yielding a 10× concentrated ‘insoluble fraction’.
NAC peptides (100 μM) were incubated without ThT for 48 h to allow aggregation. The resulting mixtures were centrifuged at 65 000 g for 1 h to separate the soluble and insoluble fractions, as outlined above. Insoluble fractions were resuspended in an equal volume of 1× PBS (pH 7.2) as the soluble fractions. UV–Vis absorption spectra were recorded from 400 to 600 nm using an EnSpire Multimode Plate Reader (Revvity) with a resolution of 10 nm.

monomeric αSyn = target: T1, monomeric αSyn (Homo sapiens, UniProt P37840, A53T); assay: In vitro seeding assay with preformed fibrils (ThT, dot blot, Coomassie gel); assay type: biochemical; details: for seeding of αSyn aggregation (effect on lag time) in words: 100 μM αSyn + 25 μM preformed fibrils, ThT; for αSyn dimerization (dimer-to-monomer band ratio, Coomassie gel): insoluble fractions of seeded αSyn, n = 2; for Key observations: seeding of αSyn aggregation: summary table
T1 construct: made in house
Description: For the in vitro seeding assay, αSyn (100 μM), NAC35 (100 μM), NAC16 (200 μM), and NAC11 (200 μM) peptides were aggregated without ThT for 72–96 h. Fibril formation was confirmed by mixing 10 μL of the aggregated sample with 15 μM ThT and measuring fluorescence using an EnSpire Multimode Plate Reader (Revvity). Aggregates were then centrifuged to separate insoluble fractions as described above.
αSyn (100 μM) was incubated with 25 μM insoluble fractions (preformed fibrils) of αSyn, NAC35, NAC16, and NAC11 in a 100–150 μL volume per well of a 96‐well ViewPlate in the presence of 50 μM ThT. The aggregation kinetics were monitored on an EnSpire Multimode Plate Reader (Revvity) at 37 °C with a constant agitation of 1000 rpm. ThT fluorescence was recorded every 5–10 min for over 60–65 h. After aggregation, the contents of each well were collected, and insoluble fractions were isolated by centrifugation. These fractions were subsequently analyzed using dot blot analysis and Coomassie gel staining.
The samples were mixed with 2× Laemmli buffer [62.5 mM Tris/HCl (pH 6.8), 25% (w/v) glycerol, 2% SDS, and 0.01% Bromophenol Blue, supplemented with 5% (v/v) 2‐mercaptoethanol] and boiled at 95 °C for 5 min. The samples were then subjected to electrophoresis using Mini‐PROTEAN TGX 4–20% Precast gels (Bio‐Rad, Hercules, CA, USA, Cat. # 4561095) in Tris/glycine/SDS running buffer (Bio‐Rad). Gels were fixed in 50% methanol (v/v) and 10% acetic acid (v/v) for 1 h, stained with Coomassie Brilliant Blue R‐250 Staining Solution (Bio‐Rad, Cat. # 1610436EDU) for 12 h at 4 °C with gentle agitation, and destained in deionized water. Gel images were acquired using a ChemiDoc MP imaging system (Bio‐Rad), and densitometry was performed using the IMAGEJ software (RRID: SCR_003070; Bethesda, MD, USA).
Five μL of the sample (2.5 μL first, allowed to dry completely, then another 2.5 μL) was spotted onto a nitrocellulose membrane (Bio‐Rad, Cat. # 1620147), pre‐divided into uniform circular grids, and allowed to dry for 10 min at room temperature. The membrane was blocked for 1 h with 5% bovine serum albumin (BSA) in 1× Tris‐buffered saline with 0.05% Tween® 20 (TBST), followed by 3× washes with TBST. The membrane was then incubated for 1 h with anti‐α‐Synuclein (D37A6) rabbit monoclonal antibody (Cell Signaling Technology, Inc., Danvers, MA, USA, Cat. # 4179, RRID: AB_1904156), which recognizes an epitope surrounding Glu105 in the C‐terminal region of αSyn, and was used at a 1 : 2000 dilution in 5% BSA/TBST. After 3× washes with TBST, the blot was incubated with Alexa Fluor™ 647 Goat anti‐Rabbit IgG (Thermo Fisher Scientific; Cat. # A‐21245) at a 1 : 5000 dilution for 1 h. The blot was imaged using the ChemiDoc MP imaging system (Bio‐Rad), and densitometry was performed using IMAGEJ.

Row | seeding of αSyn aggregation (effect on lag time) in words (monomeric αSyn) | Key observations: seeding of αSyn aggregation (monomeric αSyn) | insoluble fraction of seeded αSyn (dot blot) (monomeric αSyn; αSyn aggregated for 72 h with preformed fibrils, n = 3) | Substance | aggregation (ThT kinetics) [1] | aggregate morphology (AFM and TEM) [1] | Key observations: fibril formation and stability [1] | Key observations: nucleation [1] | aggregation on altering pH [2] | solubility: UV–Vis absorption of soluble and insoluble fractions [3] | lag time of aggregation compared with NAC35 [1] | lag time at acidic pH compared with neutral pH [2] | lag time at basic pH compared with neutral pH [2] | αSyn dimerization (dimer-to-monomer band ratio, Coomassie gel) (monomeric αSyn)
1 |  |  |  | NAC8: shortest NAC peptide, eight residues, corresponding to αSyn 72–79 (TGVTAVAQ) | did not aggregate | no fibrillar or aggregated structures were formed | No nucleation or fibril formation observed | No nucleation or fibril formation observed | did not induce | indistinguishable spectra for soluble and insoluble fractions; also recorded: remained fully soluble |  |  |  | 
2 |  |  |  | NAC12: truncated NAC peptide corresponding to αSyn 71–82 (VTGVTAVAQKTV) | did not aggregate | no fibrillar or aggregated structures were formed | No nucleation or fibril formation observed | No nucleation or fibril formation observed | did not induce | indistinguishable spectra for soluble and insoluble fractions; also recorded: remained fully soluble |  |  |  | 
3 | fail to seed αSyn aggregation | lacks seeding ability |  | NAC16: truncated NAC peptide corresponding to αSyn 63–78 (VTNVGGAVVTGVTAVA) | readily underwent aggregation | elongated fibrils with clumped tangles | moderately stable fibrils | Rapid nucleation |  | clear increase in absorbance in the insoluble fraction | shorter lag time of aggregation than NAC35 | longer lag times | longer lag times | did not promote dimerization or aggregation
4 |  |  |  | NAC17: truncated NAC peptide corresponding to αSyn 79–95 (QKTVEGAGSIAAATGFV) | did not aggregate | no fibrillar or aggregated structures were formed | No nucleation or fibril formation observed. | No nucleation or fibril formation observed. | did not induce | indistinguishable spectra for soluble and insoluble fractions; also recorded: remained fully soluble |  |  |  | 
5 | significantly shortened the lag time | effective seeding of αSyn aggregation | increased insoluble fractions | NAC35: peptide of the entire NAC domain, corresponding to αSyn 61–95 | readily underwent aggregation | elongated fibrils with clumped tangles | forms robust fibrils with enhanced stability | Slow nucleation |  | clear increase in absorbance in the insoluble fraction |  | shortened the lag time | increased it | significantly increased αSyn dimerization

Row | Substance | seeding of αSyn aggregation (effect on lag time) in words (monomeric αSyn) | Key observations: seeding of αSyn aggregation (monomeric αSyn) | insoluble fraction of seeded αSyn (dot blot) (monomeric αSyn; αSyn aggregated for 72 h with preformed fibrils, n = 3) | aggregation (ThT kinetics) [1] | aggregate morphology (AFM and TEM) [1] | Key observations: fibril formation and stability [1] | Key observations: nucleation [1] | aggregation on altering pH [2] | solubility: UV–Vis absorption of soluble and insoluble fractions [3] | lag time of aggregation compared with NAC35 [1] | lag time at acidic pH compared with neutral pH [2] | lag time at basic pH compared with neutral pH [2] | αSyn dimerization (dimer-to-monomer band ratio, Coomassie gel) (monomeric αSyn)
6 | NAC11: truncated NAC peptide corresponding to αSyn 68–78, the minimal toxic core (GAVVTGVTAVA) | fail to seed αSyn aggregation | lacks seeding ability |  | readily underwent aggregation | dense, sticky bundles lacking elongated tangles | forms unstable fibrils prone to precipitation | Rapid nucleation |  | clear increase in absorbance in the insoluble fraction | shorter lag time of aggregation than NAC35 | longer lag times | longer lag times | did not promote dimerization or aggregation
